# Results from the supplement of paper PMC10567573.
# ± gives the standard deviation.
# Experiment: protein stability index of a GFP-peptide fusion (GPS, HEK-293T) (PSI 1-6); higher = more stable
# Details: c terminus: a fixed tail appended
# 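Note: 24-mer peptide tiles fused after GFP, lentivirally expressed, FACS-sorted into six equal bins by GFP/DsRed ratio, decoded by Illumina sequencing, PSI is the read-weighted mean bin number.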
Sequence,protein stability index (treatment: DMSO),"protein stability index (treatment: MLN4924 1 uM, 8 h)"
VSGCPEDLTVGRAPTADDDDDDHD [NOL4L],5.62 ± 0.31,5.63 ± 0.28
QHLDPQGAQELLEFTIRDLQRLGE [INTS4],3.53 ± 0.4,3.81 ± 0.46
QSVENCPEDLAQLEELIDMAVLEE [RPAIN],5.27 ± 0.15,5.27 ± 0.21
SLVQLQASHQQQVLPPRQPSALVP [MYBL2],3.54 ± 0.23,3.63 ± 0.28
SSYSLSDMVSNIELPTRIHEEVYF [MIA2],2.35 ± 0.39,2.5 ± 0.6
KFSHSGRYMLTRDYLTVKVWDLNM [PPP2R2C],2.35 ± 0.23,2.33 ± 0.31
GGGADTGTGGEEVEALQLSARWLE [FBXO33],4.91 ± 0.41,5.03 ± 0.43
LFLSHVLALGLGIYIGKRLSTPSA [BNIP3L],2.86 ± 0.86,2.94 ± 0.55
MIARCLLAVRSLRRVGGSRILLRM [NLN],2.35 ± 0.74,2.05 ± 0.39
NDTKKMYAMKYMNKQKCVERNEVR [STK32A],3.71 ± 0.2,3.97 ± 0.33
PSRAKPPTEGAGSPAKASQASKLR [FBF1],5.16 ± 0.28,5.2 ± 0.2
EDEGFLREEERPLPRRDFQRQVWL [KCNA3],3.97 ± 0.1,4 ± 0.4
VCLPRSEDDDCDDDDDDDAQILPS [DRICH1],5.38 ± 0.22,5.14 ± 0.09
GSSRSPGSKARAEGRGPVTPLHLD [PLEKHN1],4.91 ± 0.16,4.74 ± 0.21
PKQLYFSARQGELQKVLLMLVDGI [EHMT1],2.66 ± 0.48,2.35 ± 0.58
ITAGGENVPPIPVETLVKKKIPII [ACSBG2],3.71 ± 0.32,3.96 ± 0.34
SGTCSPLRHSFQKQQREKTRWLNS [ADD1],2.96 ± 0.26,3.11 ± 0.059
TAERITQLSAPHCKKLSLELGGKN [ALDH8A1],3.75 ± 0.21,3.98 ± 0.19
DTELLGQATLPVGSPSRPLSRRQL [C2CD2L],4.74 ± 0.18,4.81 ± 0.15
QICRAQGLETLFSKAQELGGAGRE [ZSWIM9],3.64 ± 0.23,3.66 ± 0.26
CAFVGALGGAAFLGTAIFIEADRR [SPNS1],2.8 ± 0.78,2.36 ± 0.67
HPLAQNERCLHMFLQEEAIDRNYV [SNX12],3.17 ± 0.4,3.18 ± 0.28

Sequence,protein stability index (treatment: DMSO),"protein stability index (treatment: MLN4924 1 uM, 8 h)"
LIHKADEVTLSEAGSTAGAAETRG [PALM],5.31 ± 0.2,5.18 ± 0.15
YQASAMMVESRYALLIVDSATALY [RAD51],2.94 ± 0.47,2.89 ± 0.41
DLLHGPECRSSVTSDSEGAHVNTL [PHTF1],4.33 ± 0.14,4.61 ± 0.35
VSGKCEPIGCDGVLFSTHTLDKCG [ADAMTSL2],3.41 ± 0.4,3.35 ± 0.29
GHRPPPARSGHRCVADNTNLYVFG [KLHDC10],2.3 ± 0.33,2.44 ± 0.24
SEALASTRILKHSPESSRGQCGEN [GLIPR2],5.29 ± 0.21,4.93 ± 0.25
EFPEDPEFEAVVRQAELAIERCIF [PI4K2A],2.72 ± 0.1,2.96 ± 0.22
HYANLNGLYGSTVDHQGVSWYHWK [TNXB],2.5 ± 0.14,2.8 ± 0.66
ATTASPAKVDSSGVIDLFGDAFGS [SNAP91],4.06 ± 0.2,4.42 ± 0.15
KIGVGAMTWSPLACGIVSGKYDSG [KCNAB2],2.81 ± 0.27,2.85 ± 0.61
MALKTSLGSVQFMEQFCWPHLRSF,3.01 ± 0.86,2.69 ± 0.73
LVWRNSIRSSFISSLSFFLKKMGK [FBXO39],2.65 ± 0.65,2.9 ± 0.46
PPAALESSDSANTTIEDEDAKARK [CAMK2B],5.65 ± 0.15,5.7 ± 0.13
ILVMKHNYSQDAADACDIDEIEEV [NETO1],4.11 ± 0.16,4.18 ± 0.28
NQGLNVMVWNQNGKSPSITFEYTL [ADAMTSL2],3.01 ± 0.3,2.64 ± 0.53
SESRKPTVSIMEPGETRRNSYPRA [TRIM29],4.79 ± 0.12,4.43 ± 0.19
SKLSRKYVKAKKSIDKDEEFAGSS [FAN1],4.84 ± 0.14,4.64 ± 0.31
LVQTTDFFYPLVEDPYMMGRIACA [SEPHS2],2.34 ± 0.47,2.23 ± 0.29
MATATPVPPRMGSRAGGPTTPLSP [LMNB1],4.21 ± 0.17,4.24 ± 0.29
GRHLELANQKLSEKLAAGALPHIN [CCDC3],3.46 ± 0.42,3.79 ± 0.36
PPDTVSRTGLEKAAAGAVGLERRD [SPDEF],5.04 ± 0.15,5.29 ± 0.39
RVLFIKDVIGDEICCWSFYGQGRK [KCTD10],1.89 ± 0.51,2.38 ± 0.23
